Read-outs that look alike come from different tables or passages of the source.
Legend:
[1] = test system: LPS-induced IL-1β release in differentiated THP-1 cells; experiment: LPS-mediated IL-1β release assay; format: cell-based, human; settings: for IC50: 100 ng/ml LPS for 5 hours, read-out: IC50, inhibition of LPS-induced IL-1β secretion
Description: To test the anti-inflammatory properties of anti-MSR1 antibody-steroid conjugates in vitro, a lipopolysaccharide (LPS)-mediated IL-1β release assay was performed. For the assay, THP-1 cells were seeded onto 96 well plates at 40,000 cells/well in media containing RPMI supplemented with 10% FBS and pencillin/streptomycinin and differentiated with 200 nM Phorbol Myristate Acetate (PMA) for 3 days. After the 3-day differentiation period, three-fold serial dilutions of antibody drug conjugates, unconjugated antibodies, or free payloads in fresh media were added to the cells at final concentration ranging from 100 nM to 0.01 nM. Media alone served as a blank control. Subsequently at 24, 48, or 72 hours later, cells were treated with 100 ng/ml LPS (InVivoGen, Cat #tlrl-eklps) for 5 hours. The cell media was then collected, and IL-1β levels were measured using a V-PLEX Proinflammatory Panel 1 human kit (Meso Scale Diagnostics, Cat #15049D-2) as per manufacturer's instructions. Subsequently, the plate was read on a Meso Scale Diagnostics instrument.
IC50 values were determined from a four-parameter logistic equation over a 10-point response curve (GraphPad Prism). All IC50 values are expressed in M (molar) concentration. The IC50 values and IL-1β amount at the maximum concentration of antibody-steroid conjugates or controls are shown in Table 22 each of the time point tested.

[2] = test system: Msr1^hu/hu ApoE^−/− mice, peritoneal macrophages; experiment: LPS-mediated expression of CD80 on peritoneal macrophages (flow cytometry); format: in vivo, mouse; settings: for LPS-mediated expression of CD80, pMΦ Cells: hMSR1+F4/80+CD11b+ peritoneal macrophages; for LPS-mediated expression of CD80, non-pMΦ Cells: hMSR1−F4/80−CD11b− cells
Description: Assay protocol for ex vivo LPS-induced responses. In ex vivo LPS challenge experiments, mice were intraperitoneally administered with 10 μL/g of anti-MSR1 antibody-steroid conjugates (H1H21234N-N297Q-LP13), isotype control steroid conjugate (Isotype control-LP13), unconjugated anti-MSR1 antibody (H1H21234N-N297Q) and isotype control antibodies at different time points (24, 48, and 72 hours) prior to harvesting the peritoneal cells from peritoneal cavity. […] All mice were sacrificed at 0 hour time point and peritoneal cells were obtained from the peritoneum by the peritoneal lavage technique. In brief, 5 mL of ice cold 1×PBS (ThermoFisher Scientific, Cat #20012027) containing 2% BSA (Gibco, Cat #A9576) and 0.6 mM EDTA (ThermoFisher Scientific, Cat #15575020) were injected into the peritoneal cavity using 27 g needle. […] The resuspended cells were plated at 500,000 cells per well in 24-well tissues culture plates and incubated with or without 10 ng/mL of LPS for 18 hours.
Assay protocol for in vivo LPS-induced responses. In in vivo LPS challenge experiments, mice were intraperitoneally administered with 10 μL/g of decreasing concentrations of anti-MSR1 antibody-steroid conjugates (H1H21234N-N297Q-LP13) and isotype control steroid conjugate (Isotype control-N297Q-LP13) at 24 hours prior to in vivo LPS challenge. PBS and free steroid P4 were intraperitoneally injected at 2 hours prior to in vivo LPS challenge. At 0 hour time point, three large drops of blood (volume ˜ 100 μL) were collected from the maxillary vein of each mouse into serum gel separator tubes. The tubes were centrifuged at 2200-2500 rpm for 15 minutes, and the serum was collected into 96-well plates for subsequent measurement of cytokines. At 18 hours post in vivo LPS challenge, the peritoneal cells were obtained from periotenal cavity as aforementioned for subsequent flow cytometry analysis.
Analysis of expression of activation markers on peritoneal macrophages after LPS ex vivo challenge. Upon collection of supernatants for cytokine analysis, the plates were washed twice with 1×PBS w/o Ca^++/Mg2^++ (ThermoFisher Scientific, Cat #14190144), and the adherent peritoneal cells were harvested by addition of 250-300 μL of cold Macrophage Detachment Solution DXF (PromoCell, Cat #C41330) for 40 minutes. The detached cells were collected into 50-mL tubes and centrifuged at 350×g for 15 minutes. After two washes with 1×PBS supplemented with 2 mM EDTA, the cells were resuspended in Cell Staining Buffer (Biolegend, #420201) and plated at 1×10^6 cells per well in a 96-well V bottom plate. Cells were centrifuged and cell pellets were resuspended in 100 μL of LIVE/DEAD Blue Fluorescent Reactive Dye (Life Technologies, Cat #L34962) diluted at 1:600 in 1×PBS to determine cell viability. Cells were incubated at room temperature for 20 minutes in dark. After one wash with 1×PBS, cells were incubated in Cell Staining Buffer containing 10 μg/mL of purified rat anti-mouse CD16/CD32 Fc Block (Clone: 2.4G2; BD Biosciences, Cat #553142) for 10 minutes at 4° C. The cells were washed once and incubated in the appropriate antibody mixture diluted in Brilliant Stain Buffer (BD Biosciences, Cat #566345) for 30 minutes at 4° C. in dark. The cells were subsequently washed with 1×PBS, resuspended in Cell Staining Buffer and acquired on FACS LSRFortessa X-20 flow cytometer (Becton Dickinson). Data were analyzed using FlowJo (Tree Star).

B1: H1H21234N-N297Q-LP13 (conjugate)
VH: QVQLQESGPGLVKPSETLSLTCTVTGGSISRNYWSWIRQPPGKGLEWIGYIYYSGSIDYNPSLKSRVTISVDTSKNQFSLKLSSMTAADTAVYYCARDRWNWKYGMDVWGQGTTVIVSS
VL: EIVLTQSPGTLSLSPGERATLSCRASQTVRNNYLAWYHQKPGQAPRLLIYGASSRATGIPDRFSGSGSGTDFTLTISRLEPEDFTVYYCHQYGNSPWTFGQGTKMEIKR
IC50 ([1]; 24-hour time point): 6.29 nM | IC50 ([1]; 48-hour time point): 3.59 nM | IC50 ([1]; 72-hour time point): 1.7 nM | IL1beta released at max concentration tested ([1]; 24 hour treatment before LPS): 119.43 pg/mL | IL1beta released at max concentration tested ([1]; 48 hour treatment before LPS): 69.3 pg/mL | IL1beta released at max concentration tested ([1]; 72 hour treatment before LPS): 70.31 pg/mL | LPS-mediated expression of CD80, pMΦ Cells ([2]; administered 24 hours before): 61.1 ± 1.3 % relative to PBS/LPS-treatment | LPS-mediated expression of CD80, non-pMΦ Cells ([2]; administered 24 hours before): 95.5 ± 2.6 % relative to PBS/LPS-treatment | LPS-mediated expression of CD80, pMΦ Cells ([2]; administered 48 hours before): 58.7 ± 4.2 % relative to PBS/LPS-treatment | LPS-mediated expression of CD80, non-pMΦ Cells ([2]; administered 48 hours before): 99 ± 1.8 % relative to PBS/LPS-treatment | LPS-mediated expression of CD80, pMΦ Cells ([2]; administered 72 hours before): 63.9 ± 1.01 % relative to PBS/LPS-treatment | LPS-mediated expression of CD80, non-pMΦ Cells ([2]; administered 72 hours before): 102.3 ± 0.14 % relative to PBS/LPS-treatment | LPS-mediated expression of CD80 on hMSR1^+F4/80^+CD11b^+ peritoneal macrophages (pMΦ) ([2]; in vivo administration): significant reduction
